IntAct's records for PubMed 29892012

Columns and labels:
phs_human PCBD1 = molecular target: T1, phs_human PCBD1 (UniProt P61457)
T1 sequence: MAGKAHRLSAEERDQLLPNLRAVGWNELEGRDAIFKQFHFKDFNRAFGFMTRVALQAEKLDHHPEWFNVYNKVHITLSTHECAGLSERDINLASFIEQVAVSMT

dcor_human ODC1 = molecular target: T2, dcor_human ODC1 (UniProt P11926)
T2 sequence: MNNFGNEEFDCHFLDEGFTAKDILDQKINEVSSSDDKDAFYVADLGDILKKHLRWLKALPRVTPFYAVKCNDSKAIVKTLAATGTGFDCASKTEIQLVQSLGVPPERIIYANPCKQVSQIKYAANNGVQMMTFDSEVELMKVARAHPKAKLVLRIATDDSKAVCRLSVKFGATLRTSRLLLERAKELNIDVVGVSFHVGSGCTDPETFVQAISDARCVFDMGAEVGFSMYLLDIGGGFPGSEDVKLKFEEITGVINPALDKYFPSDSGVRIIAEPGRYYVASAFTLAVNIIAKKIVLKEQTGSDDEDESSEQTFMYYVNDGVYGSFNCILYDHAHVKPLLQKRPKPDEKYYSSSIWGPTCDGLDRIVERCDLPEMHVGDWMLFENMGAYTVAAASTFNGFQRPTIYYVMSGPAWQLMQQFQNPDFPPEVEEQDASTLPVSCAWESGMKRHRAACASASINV

cryaa_human CRYAA = molecular target: T3, cryaa_human CRYAA (UniProt P02489)
T3 sequence: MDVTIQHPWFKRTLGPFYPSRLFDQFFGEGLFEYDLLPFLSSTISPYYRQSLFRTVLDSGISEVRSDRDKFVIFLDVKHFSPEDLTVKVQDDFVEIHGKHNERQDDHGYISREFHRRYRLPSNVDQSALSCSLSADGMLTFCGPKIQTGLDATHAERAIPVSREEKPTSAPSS

traf1_human TRAF1 = molecular target: T4, traf1_human TRAF1 (UniProt Q13077)
T4 sequence: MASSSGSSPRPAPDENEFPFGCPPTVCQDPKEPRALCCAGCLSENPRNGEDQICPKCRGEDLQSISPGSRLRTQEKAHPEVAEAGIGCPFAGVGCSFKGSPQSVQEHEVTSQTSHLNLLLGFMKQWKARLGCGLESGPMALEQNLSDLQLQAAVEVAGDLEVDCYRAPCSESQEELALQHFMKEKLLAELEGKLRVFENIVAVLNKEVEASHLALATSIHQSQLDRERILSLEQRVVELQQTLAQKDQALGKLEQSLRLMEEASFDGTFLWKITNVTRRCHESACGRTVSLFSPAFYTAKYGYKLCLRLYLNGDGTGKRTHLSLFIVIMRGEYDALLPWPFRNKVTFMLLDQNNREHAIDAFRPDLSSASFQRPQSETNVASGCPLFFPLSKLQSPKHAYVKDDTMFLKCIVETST

zmat1_human ZMAT1 = zmat1_human ZMAT1 (UniProt Q5H9K5)
Chain of zmat1_human ZMAT1 (Q5H9K5 whole entry): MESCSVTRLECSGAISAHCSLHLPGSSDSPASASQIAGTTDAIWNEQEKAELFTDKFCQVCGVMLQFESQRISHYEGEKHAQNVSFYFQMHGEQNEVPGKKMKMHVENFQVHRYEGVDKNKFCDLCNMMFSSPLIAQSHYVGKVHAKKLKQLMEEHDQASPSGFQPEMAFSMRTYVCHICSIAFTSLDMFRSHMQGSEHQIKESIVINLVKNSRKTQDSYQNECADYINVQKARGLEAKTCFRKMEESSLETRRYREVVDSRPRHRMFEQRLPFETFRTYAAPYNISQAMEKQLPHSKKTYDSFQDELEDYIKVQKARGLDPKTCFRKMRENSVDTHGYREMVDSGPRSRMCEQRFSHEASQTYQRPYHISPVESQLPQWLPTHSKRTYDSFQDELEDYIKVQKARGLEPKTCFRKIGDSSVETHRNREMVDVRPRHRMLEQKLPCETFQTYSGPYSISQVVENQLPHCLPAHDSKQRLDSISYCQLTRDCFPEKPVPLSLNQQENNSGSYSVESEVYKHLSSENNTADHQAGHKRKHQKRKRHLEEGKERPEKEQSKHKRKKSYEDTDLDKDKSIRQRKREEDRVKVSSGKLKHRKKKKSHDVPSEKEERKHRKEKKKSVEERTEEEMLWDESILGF

itf2_human TCF4 = itf2_human TCF4 (UniProt P15884)
Chain of itf2_human TCF4 (P15884 whole entry): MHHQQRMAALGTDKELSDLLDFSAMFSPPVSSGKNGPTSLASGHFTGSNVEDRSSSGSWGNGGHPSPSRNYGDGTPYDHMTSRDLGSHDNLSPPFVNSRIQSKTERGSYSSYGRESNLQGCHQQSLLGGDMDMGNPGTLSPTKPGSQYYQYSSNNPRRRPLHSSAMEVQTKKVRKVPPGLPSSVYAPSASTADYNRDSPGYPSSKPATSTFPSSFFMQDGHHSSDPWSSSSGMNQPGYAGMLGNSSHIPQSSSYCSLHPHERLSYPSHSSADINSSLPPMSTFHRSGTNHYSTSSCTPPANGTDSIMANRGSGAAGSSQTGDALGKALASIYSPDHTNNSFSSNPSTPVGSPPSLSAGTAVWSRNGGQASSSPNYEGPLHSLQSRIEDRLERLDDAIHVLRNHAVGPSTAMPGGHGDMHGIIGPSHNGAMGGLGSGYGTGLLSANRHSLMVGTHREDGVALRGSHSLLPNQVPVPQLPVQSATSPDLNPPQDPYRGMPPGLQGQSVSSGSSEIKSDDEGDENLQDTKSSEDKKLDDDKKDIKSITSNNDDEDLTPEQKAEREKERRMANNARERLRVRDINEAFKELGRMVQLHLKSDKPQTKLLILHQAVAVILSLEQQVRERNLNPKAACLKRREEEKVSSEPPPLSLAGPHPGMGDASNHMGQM

reep6_human REEP6 = reep6_human REEP6 (UniProt Q96HR9)
Chain of reep6_human REEP6 (Q96HR9 whole entry): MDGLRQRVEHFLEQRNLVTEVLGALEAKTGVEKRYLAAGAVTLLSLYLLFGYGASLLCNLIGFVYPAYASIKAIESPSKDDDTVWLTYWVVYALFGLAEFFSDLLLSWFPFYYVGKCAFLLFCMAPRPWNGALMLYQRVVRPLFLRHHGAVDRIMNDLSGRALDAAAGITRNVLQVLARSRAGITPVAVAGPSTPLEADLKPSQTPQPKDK

ei2ba_human EIF2B1 = molecular target: T5, ei2ba_human EIF2B1 (UniProt Q14232)
T5 sequence: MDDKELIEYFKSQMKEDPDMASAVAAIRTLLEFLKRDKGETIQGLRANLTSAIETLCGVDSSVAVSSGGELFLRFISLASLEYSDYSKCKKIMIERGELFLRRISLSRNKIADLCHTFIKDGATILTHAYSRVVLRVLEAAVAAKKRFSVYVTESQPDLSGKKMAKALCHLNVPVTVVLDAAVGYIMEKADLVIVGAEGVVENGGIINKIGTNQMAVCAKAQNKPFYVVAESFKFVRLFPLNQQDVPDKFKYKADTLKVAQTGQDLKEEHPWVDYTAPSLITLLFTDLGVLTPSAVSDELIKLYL

tle5_human TLE5 = molecular target: T6, tle5_human TLE5 (UniProt Q08117)
T6 sequence: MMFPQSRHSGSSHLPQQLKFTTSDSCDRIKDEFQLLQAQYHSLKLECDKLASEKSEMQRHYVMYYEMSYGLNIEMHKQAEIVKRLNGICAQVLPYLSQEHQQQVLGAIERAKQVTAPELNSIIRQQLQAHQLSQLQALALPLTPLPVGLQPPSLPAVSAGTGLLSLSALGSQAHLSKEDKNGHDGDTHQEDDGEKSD

bend5_human BEND5 = molecular target: T7, bend5_human BEND5 (UniProt Q7L4P6)
T7 sequence: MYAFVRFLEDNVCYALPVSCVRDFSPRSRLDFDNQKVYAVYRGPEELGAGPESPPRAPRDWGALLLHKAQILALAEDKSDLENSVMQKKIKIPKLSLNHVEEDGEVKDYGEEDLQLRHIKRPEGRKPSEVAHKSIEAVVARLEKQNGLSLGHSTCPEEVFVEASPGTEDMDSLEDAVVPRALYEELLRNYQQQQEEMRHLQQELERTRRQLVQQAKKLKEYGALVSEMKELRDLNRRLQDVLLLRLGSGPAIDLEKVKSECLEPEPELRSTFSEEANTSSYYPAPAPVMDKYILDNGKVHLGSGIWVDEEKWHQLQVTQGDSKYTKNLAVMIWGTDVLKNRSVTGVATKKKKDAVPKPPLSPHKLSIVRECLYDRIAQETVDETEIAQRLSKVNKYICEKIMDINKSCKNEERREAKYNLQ

dctd_human DCTD = molecular target: T8, dctd_human DCTD (UniProt P32321)
T8 sequence: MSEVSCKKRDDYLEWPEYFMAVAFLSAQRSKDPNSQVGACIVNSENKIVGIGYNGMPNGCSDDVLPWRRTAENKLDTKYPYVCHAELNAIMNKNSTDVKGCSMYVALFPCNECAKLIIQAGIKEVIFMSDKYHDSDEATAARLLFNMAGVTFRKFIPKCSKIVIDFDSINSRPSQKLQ

drc12_human DRC12 = drc12_human DRC12 (UniProt Q494R4)
Chain of drc12_human DRC12 (Q494R4 whole entry): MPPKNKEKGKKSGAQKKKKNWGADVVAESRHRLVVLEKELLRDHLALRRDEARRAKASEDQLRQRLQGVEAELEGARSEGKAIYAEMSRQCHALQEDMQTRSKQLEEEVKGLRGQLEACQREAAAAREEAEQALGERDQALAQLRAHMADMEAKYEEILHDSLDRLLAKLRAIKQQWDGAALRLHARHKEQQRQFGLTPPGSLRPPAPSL

dpyl2_human DPYSL2 = dpyl2_human DPYSL2 (UniProt Q16555)
pde9a_human PDE9A = pde9a_human PDE9A (UniProt O76083)
Chain of pde9a_human PDE9A (O76083 whole entry): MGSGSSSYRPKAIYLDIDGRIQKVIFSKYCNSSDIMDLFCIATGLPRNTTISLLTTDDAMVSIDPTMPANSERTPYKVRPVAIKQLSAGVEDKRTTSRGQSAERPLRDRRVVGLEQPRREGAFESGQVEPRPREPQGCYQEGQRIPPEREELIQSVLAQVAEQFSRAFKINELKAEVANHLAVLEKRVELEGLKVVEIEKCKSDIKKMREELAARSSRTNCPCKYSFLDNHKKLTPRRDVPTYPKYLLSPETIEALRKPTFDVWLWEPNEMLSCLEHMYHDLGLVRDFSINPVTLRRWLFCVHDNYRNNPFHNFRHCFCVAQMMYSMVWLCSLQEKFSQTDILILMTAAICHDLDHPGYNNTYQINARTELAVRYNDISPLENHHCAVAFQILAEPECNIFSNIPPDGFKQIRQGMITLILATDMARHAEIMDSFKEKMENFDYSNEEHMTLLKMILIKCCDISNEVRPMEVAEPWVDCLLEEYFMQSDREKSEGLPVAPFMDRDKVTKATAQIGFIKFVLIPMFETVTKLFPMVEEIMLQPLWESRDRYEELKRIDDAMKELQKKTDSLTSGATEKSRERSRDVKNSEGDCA

txlna_human TXLNA = txlna_human TXLNA (UniProt P40222)
Chain of txlna_human TXLNA (P40222 whole entry): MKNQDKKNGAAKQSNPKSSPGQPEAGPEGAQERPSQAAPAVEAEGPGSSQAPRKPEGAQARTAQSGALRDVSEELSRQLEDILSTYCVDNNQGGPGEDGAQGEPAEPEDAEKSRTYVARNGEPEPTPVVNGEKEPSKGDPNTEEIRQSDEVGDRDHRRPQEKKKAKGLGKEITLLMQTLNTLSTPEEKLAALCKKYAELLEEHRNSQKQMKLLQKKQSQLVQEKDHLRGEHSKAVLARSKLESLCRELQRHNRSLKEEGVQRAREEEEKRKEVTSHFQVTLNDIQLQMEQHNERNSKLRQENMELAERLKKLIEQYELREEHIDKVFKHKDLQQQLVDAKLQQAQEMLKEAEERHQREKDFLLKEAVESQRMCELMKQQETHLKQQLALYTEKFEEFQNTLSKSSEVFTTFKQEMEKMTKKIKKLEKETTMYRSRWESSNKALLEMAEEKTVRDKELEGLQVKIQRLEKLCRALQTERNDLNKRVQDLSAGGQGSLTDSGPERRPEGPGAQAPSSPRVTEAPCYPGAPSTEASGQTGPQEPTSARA

effect of a mutation on the interaction (phs_human PCBD1): with no effect
effect of a mutation on the interaction (dcor_human ODC1): disrupting interaction strength
effect of a mutation on the interaction (cryaa_human CRYAA): with no effect
effect of a mutation on the interaction (traf1_human TRAF1): with no effect
effect of a mutation on the interaction (zmat1_human ZMAT1): with no effect
effect of a mutation on the interaction (itf2_human TCF4): with no effect
effect of a mutation on the interaction (reep6_human REEP6): with no effect
effect of a mutation on the interaction (ei2ba_human EIF2B1): with no effect
effect of a mutation on the interaction (tle5_human TLE5): disrupting interaction strength
effect of a mutation on the interaction (bend5_human BEND5): with no effect
effect of a mutation on the interaction (dctd_human DCTD): with no effect
effect of a mutation on the interaction (drc12_human DRC12): with no effect
effect of a mutation on the interaction (dpyl2_human DPYSL2): with no effect
effect of a mutation on the interaction (pde9a_human PDE9A): with no effect
effect of a mutation on the interaction (txlna_human TXLNA): with no effect
Substance: Golgi reassembly-stacking protein 2 (Homo sapiens) (from UniProt Q9H8Y8) L320R
